Where “and” joins values, the source holds several entries; their conditions need not be identical. Equal values may be shown once.
B1: H3-3F4 (Fab) (Fab, V domains shown)
VH: QVTLRESGPALVKPTQTLTLTCTFSGFSLSTAGMSVGWIRQPPGKALEWLADIWWDDKKDYNPSLKSRLTISKDTSKNQVVLKVTNMDPADTATYYCARDMIFNWYFDVWGAGTTVTVSS
VL: DIQMTQSPSTLSASVGDRVTITCSASSSVGYMHWYQQKPGKAPKLLIYDTFKLASGVPSRFSGSGSGTEFTLTISSLQPDDFATYYCFQGSGYPFTFGGGTKLEIK
notes: also called 113-3F4
B2: A13c4 (Fab) (Fab, V domains shown)
VH: QVTLRESGPALVKPTQTLTLTCTFSGFSLSTAGMSVGWIRQPPGKALEWLADIWWDGKKSYNPSLKDRLTISKDTSKNQVVLKVTNMDPADTATYYCARDMIFNFYFDVWGQGTTVTVSS
VL: DIQMTQSPSTLSASVGDRVTITCSLSSRVGYMHWYQQKPGKAPKLLIYDTMYQSSGVPSRFSGSGSGTEFTLTISSLQPDDFATYYCFQGSGYPFTFGGGTKVEIK
B3: P12f2 (Fab) (Fab, V domains shown)
VH: QVTLRESGPALVKPTQTLTLTCTFSGFSLSTPGMSVGWIRQPPGKALEWLADIWWDDKKHYNPSLKDRLTISKDTSKNQVVLKVTNMDPADTATYYCARDMIFNFYFDVWGAGTTVTVSS
VL: DIQMTQSPSTLSASVGDRVTITCSLSSRVGYMHWYQQKPGKAPKLLIYDTFYLSSGVPSRFSGSGSGTEFTLTISSLQPDDFATYYCFQGSGYPFTFGGGTKVEIK
notes: also called Pf12; P1212
B4: A13a11 (Fab) (Fab, V domains shown)
VH: QVTLRESGPALVKPTQTLTLTCTFSGFSLSTAGMSVGWIRQPPGKALEWLADIWWDDKKHYNPSLKDRLTISKDTSKNQVVLKVTNMDPADTATYYCARDMIFNWYFDVWGAGTTVTVSS
VL: DIQMTQSPSTLSASVGDRVTITCSPSSRVGYMHWYQQKPGKAPKLLIYDTYRHSSGVPSRFSGSGSGTEFTLTISSLQPDDFATYYCFQGSGYPFTFGGGTKLEIK
B5: P11d4 (Fab) (Fab, V domains shown)
VH: QVTLRESGPALVKPTQTLTLTCTFSGFSLSTPGMSVGWIRQPPGKALEWLADIWWDGKKHYNPSLKDRLTISKDTSKNQVVLKVTNMDPADTATYYCARDMIFNWYFDVWGQGTTVTVSS
VL: DIQMTQSPSTLSASVGDRVTITCSPSSRVGYMHWYQQKPGKAPKLLIYDTMRLASGVPSRFSGSGSGTEFTLTISSLQPDDFATYYCFQGSGYPFTFGGGTKVEIK
B6: A12a6 (Fab) (Fab, V domains shown)
VH: QVTLRESGPALVKPTQTLTLTCTFSGFSLSTAGMSVGWIRQPPGKALEWLADIWWDGKKDYNPSLKDRLTISKDTSKNQVVLKVTNMDPADTATYYCARDMIFNFYFDVWGQGTTVTVSS
VL: DIQMTQSPSTLSASVGDRVTITCSASSRVGYMHWYQQKPGKAPKLLIYDTFKLSSGVPSRFSGSGSGTEFTLTISSLQPDDFATYYCFQGSGYPFTFGGGTKVEIK
B7: P12f4 (Fab) (Fab, V domains shown)
VH: QVTLRESGPALVKPTQTLTLTCTFSGFSLSTPGMSVGWIRQPPGKALEWLADIWWDGKKHYNPSLKDRLTISKDTSKNQVVLKVTNMDPADTATYYCARDMIFNFYFDVWGQGTTVTVSS
VL: DIQMTQSPSTLSASVGDRVTITCSLSSRVGYMHWYQQKPGKAPKLLIYDTRGLPSGVPSRFSGSGSGTEFTLTISSLQPDDFATYYCFQGSGYPFTFGGGTKVEIK
B8: M3H9 (Fab) (Fab, V domains shown)
VH: QVTLRESGPALVKPTQTLTLTCTFSGFSLSTAGMSVGWIRQPPGKALEWLADIWWDDKKDYNPSLKSRLTISKDTSKNQVVLKVTNMDPADTATYYCARDMIFNWYFDVWGAGTTVTVSS
VL: DIQMTQSPSTLSASVGDRVTITCSASSSVGYMHWYQQKPGKAPKLLIYDTYKQTSGVPSRFSGSGSGTEFTLTISSLQPDDFATYYCFQGSGYPFTFGGGTKLEIK
B9: Y10H6 (Fab) (Fab, V domains shown)
VH: QVTLRESGPALVKPTQTLTLTCTFSGFSLSTAGMSVGWIRQPPGKALEWLADIWWDDKKDYNPSLKSRLTISKDTSKNQVVLKVTNMDPADTATYYCARDMIFNWYFDVWGAGTTVTVSS
VL: DIQMTQSPSTLSASVGDRVTITCSASSSVGYMHWYQQKPGKAPKLLIYDTRYLSSGVPSRFSGSGSGTEFTLTISSLQPDDFATYYCFQGSGYPFTFGGGTKLEIK
B10: L1-7E5 (Fab) (Fab, V domains shown)
VH: QVTLRESGPALVKPTQTLTLTCTFSGFSLSTAGMSVGWIRQPPGKALEWLADIWWDDKKDYNPSLKSRLTISKDTSKNQVVLKVTNMDPADTATYYCARDMITNFYFDVWGAGTTVTVSS
VL: DIQMTQSPSTLSASVGDRVTITCSASSRVGYMHWYQQKPGKAPKLLIYDTFKLASGVPSRFSGSGSGTEFTLTISSLQPDDFATYYCFQGSGYPFTFGGGTKLEIK
B11: A4B4 (monoclonal antibody) (antibody, V domains shown)
VH: QVTLRESGPALVKPTQTLTLTCTFSGFSLSTAGMSVGWIRQPPGKALEWLADIWWDDKKHYNPSLKDRLTISKDTSKNQVVLKVTNMDPADTATYYCARDMIFNFYFDVWGQGTTVTVSS
VL: DIQMTQSPSTLSASVGDRVTITCSASSRVGYMHWYQQKPGKAPKLLIYDTFFLDSGVPSRFSGSGSGTEFTLTISSLQPDDFATYYCFQGSGYPFTFGGGTKLEIK
notes: also called A4B4/A4B4 (HC/LC)

How the values were obtained:
[1] = target: F protein (RSV F glycoprotein immobilised on the BIAcore sensor chip) (respiratory syncytial virus (RSV), UniProt P03420 26-524); test: BIAcore, immobilised F protein
[2] = target: T1, F protein of wild type RSV A/Long (respiratory syncytial virus, strain …, UniProt P12568 26-574); test: cell-based or functional assay
[3] = target: T1, F protein of wild type RSV A/Long; test: cell-based or functional assay; remark: listed apart in the source
[4] = target: T2, F protein of RSV A/Long MARM #6 (selected with A4B4) (respiratory syncytial virus, strain …, UniProt P12568 26-574); test: IFA on MARM-infected HEp-2 cells
T2 construct: whole, on cells

[5] = target: T3, F protein of RSV A/Long MARM #9 (selected with A4B4) (respiratory syncytial virus, strain …, UniProt P12568 26-574); test: IFA on MARM-infected HEp-2 cells
T3 construct: whole, on cells

[6] = target: T4, F protein of RSV A/Long MARM #11 (selected with A4B4) (respiratory syncytial virus, strain …, UniProt P12568 26-574); test: IFA on MARM-infected HEp-2 cells
T4 construct: whole, on cells

[7] = target: T5, F protein of RSV A/Long MARM #10 (selected with A4B4) (respiratory syncytial virus, strain …, UniProt P12568 26-574); test: IFA on MARM-infected HEp-2 cells
T5 construct: whole, on cells

[8] = target: Bac-F (UniProt P03420 26-524); test: BIAcore, Mab vs Bac-F, 1:1
[9] = target: T6, F protein of MARM #13 (selected with A4B4 from MARM B9) (respiratory syncytial virus, strain …, UniProt P12568 26-574); test: IFA on MARM-infected HEp-2 cells
T6 construct: whole, on cells

Row | Binder | koff [1] | kon [1] | EC50, RSV (Long) microneutralization [2] | Fold Difference (Control IC50) [3] | Fold Difference (Curve IC50) [3] | Mean IC50 (Control), RSV microneutralization [3] | Mean IC50 (Curve), RSV microneutralization [3] | further results
1 | B1 | 0.000445 s⁻¹ and 0.000402 s⁻¹ | – | – | – | – | – | – | –
2 | B2 | 0.00028 s⁻¹ | 781000 M⁻¹ s⁻¹ and 735000 M⁻¹ s⁻¹ | 0.52 nM | 21 fold | 17 fold | 0.0258 µg/mL | 0.0264 µg/mL | –
3 | B3 | 0.000282 s⁻¹ | 663000 M⁻¹ s⁻¹ | 0.65 nM | 16 fold | 11 fold | 0.0326 µg/mL | 0.0407 µg/mL | –
4 | B4 | 0.00025 s⁻¹ | 735000 M⁻¹ s⁻¹ | – | – | – | – | – | –
5 | B5 | 0.000717 s⁻¹ | 570000 M⁻¹ s⁻¹ and 572000 M⁻¹ s⁻¹ | > 20 nM | – | – | > 1 µg/mL | > 1 µg/mL | –
6 | B6 | 0.00023 s⁻¹ | 743000 M⁻¹ s⁻¹ | 0.62 nM | 17 fold | 16 fold | 0.031 µg/mL | 0.0287 µg/mL | –
7 | B7 | 0.000299 s⁻¹ | 527000 M⁻¹ s⁻¹ | 0.7 nM | 15 fold | 10 fold | 0.0351 µg/mL | 0.0464 µg/mL | –
8 | B8 | 0.000338 s⁻¹ | 605000 M⁻¹ s⁻¹ | – | – | – | – | – | –
9 | B9 | 0.000462 s⁻¹ | 757000 M⁻¹ s⁻¹ | – | – | – | – | – | –
10 | B10 | 0.000192 s⁻¹ and 0.000331 s⁻¹ and 0.000229 s⁻¹ | – | – | – | – | – | – | –
11 | B11 | – | – | – | 35 fold | 27 fold | 0.0154 µg/mL | 0.0171 µg/mL | binding result [4]: no binding (tested: 250 ng/ml); binding result [5]: no binding (tested: 250 ng/ml); binding result [6]: no binding (tested: 250 ng/ml); binding result [7]: no binding (tested: 250 ng/ml); Kd [8]: 0.02 nM; koff [8]: 1.06e-05 s⁻¹; kon [8]: 434000 M⁻¹ s⁻¹; number in parentheses after KD (fold vs SYNAGIS) [8]: 195 fold; binding result [9]: no binding (tested: 250 ng/ml)

— patent publication US20020177126A1 (published 2002)
